# According to patent US20230357348A1 (AstraZeneca / MedImmune, published 2023):
# Starred links: 1 amine or outer side, 2 acyl side, 3 side chain; linkers in the order of their positions; H or OH if unused. Non-standard residues stand in square brackets, D forms with d. Groups on a side chain read outwards from the residue. No end group written: not given here. *: point of attachment. C20 diacid = O=C(O)CCCCCCCCCCCCCCCCCCC(=O)*; C18 diacid = O=C(O)CCCCCCCCCCCCCCCCC(=O)*; γGlu = O=C(O)[C@H](CCC(=O)[*:2])N[*:1]; αMeF = C[C@](N)(Cc1ccccc1)C(=O)O; AEEA = NCCOCCOCC(=O)O; Aib = CC(C)(N)C(=O)O
# B1: Peptide 462 (peptide)
# peptide: H[Aib]QGTFTSDVSK[αMeF]LDTK([AEEA-AEEA-γGlu-C18 diacid])RARDFVQWLLEAG-OH
# modifications: N-terminus assumed
# SMILES: CC(C)C[C@H](NC(=O)[C@H](CC(C)C)NC(=O)[C@H](Cc1c[nH]c2ccccc12)NC(=O)[C@H](CCC(N)=O)NC(=O)[C@@H](NC(=O)[C@H](Cc1ccccc1)NC(=O)[C@H](CC(=O)O)NC(=O)[C@H](CCCNC(=N)N)NC(=O)[C@H](C)NC(=O)[C@H](CCCNC(=N)N)NC(=O)[C@H](CCCCNC(=O)COCCOCCNC(=O)COCCOCCNC(=O)CC[C@H](NC(=O)CCCCCCCCCCCCCCCCC(=O)O)C(=O)O)NC(=O)[C@@H](NC(=O)[C@H](CC(=O)O)NC(=O)[C@H](CC(C)C)NC(=O)[C@](C)(Cc1ccccc1)NC(=O)[C@H](CCCCN)NC(=O)[C@H](CO)NC(=O)[C@@H](NC(=O)[C@H](CC(=O)O)NC(=O)[C@H](CO)NC(=O)[C@@H](NC(=O)[C@H](Cc1ccccc1)NC(=O)[C@@H](NC(=O)CNC(=O)[C@H](CCC(N)=O)NC(=O)C(C)(C)NC(=O)[C@@H](N)Cc1c[nH]cn1)[C@@H](C)O)[C@@H](C)O)C(C)C)[C@@H](C)O)C(C)C)C(=O)N[C@@H](CCC(=O)O)C(=O)N[C@@H](C)C(=O)NCC(=O)O
# B2: Peptide 452 (peptide)
# peptide: H[Aib]QGTFTSDVSK[αMeF]LDKK([AEEA-AEEA-γGlu-C20 diacid])RALDFVRWLL[Aib]E-NH2
# modifications: N-terminus assumed
# SMILES: CC(C)C[C@H](NC(=O)[C@H](C)NC(=O)[C@H](CCCNC(=N)N)NC(=O)[C@H](CCCCNC(=O)COCCOCCNC(=O)COCCOCCNC(=O)CC[C@H](NC(=O)CCCCCCCCCCCCCCCCCCC(=O)O)C(=O)O)NC(=O)[C@H](CCCCN)NC(=O)[C@H](CC(=O)O)NC(=O)[C@H](CC(C)C)NC(=O)[C@](C)(Cc1ccccc1)NC(=O)[C@H](CCCCN)NC(=O)[C@H](CO)NC(=O)[C@@H](NC(=O)[C@H](CC(=O)O)NC(=O)[C@H](CO)NC(=O)[C@@H](NC(=O)[C@H](Cc1ccccc1)NC(=O)[C@@H](NC(=O)CNC(=O)[C@H](CCC(N)=O)NC(=O)C(C)(C)NC(=O)[C@@H](N)Cc1c[nH]cn1)[C@@H](C)O)[C@@H](C)O)C(C)C)C(=O)N[C@@H](CC(=O)O)C(=O)N[C@@H](Cc1ccccc1)C(=O)N[C@H](C(=O)N[C@@H](CCCNC(=N)N)C(=O)N[C@@H](Cc1c[nH]c2ccccc12)C(=O)N[C@@H](CC(C)C)C(=O)N[C@@H](CC(C)C)C(=O)NC(C)(C)C(=O)N[C@@H](CCC(=O)O)C(N)=O)C(C)C
# B3: Peptide 456 (peptide)
# peptide: H[Aib]QGTFTSDVSK[αMeF]LDRK([AEEA-AEEA-γGlu-C20 diacid])RAQDFVRWLL[Aib]E-NH2
# modifications: N-terminus assumed
# SMILES: CC(C)C[C@H](NC(=O)[C@H](Cc1c[nH]c2ccccc12)NC(=O)[C@H](CCCNC(=N)N)NC(=O)[C@@H](NC(=O)[C@H](Cc1ccccc1)NC(=O)[C@H](CC(=O)O)NC(=O)[C@H](CCC(N)=O)NC(=O)[C@H](C)NC(=O)[C@H](CCCNC(=N)N)NC(=O)[C@H](CCCCNC(=O)COCCOCCNC(=O)COCCOCCNC(=O)CC[C@H](NC(=O)CCCCCCCCCCCCCCCCCCC(=O)O)C(=O)O)NC(=O)[C@H](CCCNC(=N)N)NC(=O)[C@H](CC(=O)O)NC(=O)[C@H](CC(C)C)NC(=O)[C@](C)(Cc1ccccc1)NC(=O)[C@H](CCCCN)NC(=O)[C@H](CO)NC(=O)[C@@H](NC(=O)[C@H](CC(=O)O)NC(=O)[C@H](CO)NC(=O)[C@@H](NC(=O)[C@H](Cc1ccccc1)NC(=O)[C@@H](NC(=O)CNC(=O)[C@H](CCC(N)=O)NC(=O)C(C)(C)NC(=O)[C@@H](N)Cc1c[nH]cn1)[C@@H](C)O)[C@@H](C)O)C(C)C)C(C)C)C(=O)N[C@@H](CC(C)C)C(=O)NC(C)(C)C(=O)N[C@@H](CCC(=O)O)C(N)=O
# B4: Peptide 465 (peptide)
# peptide: H[Aib]QGTFTSDVSK[αMeF]LDLK([AEEA-AEEA-γGlu-γGlu-C18 diacid])RAQDFVQWLL[Aib]T-OH
# modifications: N-terminus assumed
# SMILES: CC(C)C[C@H](NC(=O)[C@H](CC(=O)O)NC(=O)[C@H](CC(C)C)NC(=O)[C@](C)(Cc1ccccc1)NC(=O)[C@H](CCCCN)NC(=O)[C@H](CO)NC(=O)[C@@H](NC(=O)[C@H](CC(=O)O)NC(=O)[C@H](CO)NC(=O)[C@@H](NC(=O)[C@H](Cc1ccccc1)NC(=O)[C@@H](NC(=O)CNC(=O)[C@H](CCC(N)=O)NC(=O)C(C)(C)NC(=O)[C@@H](N)Cc1c[nH]cn1)[C@@H](C)O)[C@@H](C)O)C(C)C)C(=O)N[C@@H](CCCCNC(=O)COCCOCCNC(=O)COCCOCCNC(=O)CC[C@H](NC(=O)CC[C@H](NC(=O)CCCCCCCCCCCCCCCCC(=O)O)C(=O)O)C(=O)O)C(=O)N[C@@H](CCCNC(=N)N)C(=O)N[C@@H](C)C(=O)N[C@@H](CCC(N)=O)C(=O)N[C@@H](CC(=O)O)C(=O)N[C@@H](Cc1ccccc1)C(=O)N[C@H](C(=O)N[C@@H](CCC(N)=O)C(=O)N[C@@H](Cc1c[nH]c2ccccc12)C(=O)N[C@@H](CC(C)C)C(=O)N[C@@H](CC(C)C)C(=O)NC(C)(C)C(=O)N[C@H](C(=O)O)[C@@H](C)O)C(C)C
# B5: Peptide 451 (peptide)
# peptide: H[Aib]QGTFTSDVSK[αMeF]LDKK([AEEA-AEEA-γGlu-C20 diacid])RARDFVLWLL[Aib]E-NH2
# modifications: N-terminus assumed
# SMILES: CC(C)C[C@H](NC(=O)[C@H](Cc1c[nH]c2ccccc12)NC(=O)[C@H](CC(C)C)NC(=O)[C@@H](NC(=O)[C@H](Cc1ccccc1)NC(=O)[C@H](CC(=O)O)NC(=O)[C@H](CCCNC(=N)N)NC(=O)[C@H](C)NC(=O)[C@H](CCCNC(=N)N)NC(=O)[C@H](CCCCNC(=O)COCCOCCNC(=O)COCCOCCNC(=O)CC[C@H](NC(=O)CCCCCCCCCCCCCCCCCCC(=O)O)C(=O)O)NC(=O)[C@H](CCCCN)NC(=O)[C@H](CC(=O)O)NC(=O)[C@H](CC(C)C)NC(=O)[C@](C)(Cc1ccccc1)NC(=O)[C@H](CCCCN)NC(=O)[C@H](CO)NC(=O)[C@@H](NC(=O)[C@H](CC(=O)O)NC(=O)[C@H](CO)NC(=O)[C@@H](NC(=O)[C@H](Cc1ccccc1)NC(=O)[C@@H](NC(=O)CNC(=O)[C@H](CCC(N)=O)NC(=O)C(C)(C)NC(=O)[C@@H](N)Cc1c[nH]cn1)[C@@H](C)O)[C@@H](C)O)C(C)C)C(C)C)C(=O)N[C@@H](CC(C)C)C(=O)NC(C)(C)C(=O)N[C@@H](CCC(=O)O)C(N)=O
# B6: Peptide 454 (peptide)
# peptide: H[Aib]QGTFTSDVSK[αMeF]LDKK([AEEA-AEEA-γGlu-C20 diacid])RAQDFVRWLEA[Aib]G-NH2
# modifications: N-terminus assumed
# SMILES: CC(C)C[C@H](NC(=O)[C@H](Cc1c[nH]c2ccccc12)NC(=O)[C@H](CCCNC(=N)N)NC(=O)[C@@H](NC(=O)[C@H](Cc1ccccc1)NC(=O)[C@H](CC(=O)O)NC(=O)[C@H](CCC(N)=O)NC(=O)[C@H](C)NC(=O)[C@H](CCCNC(=N)N)NC(=O)[C@H](CCCCNC(=O)COCCOCCNC(=O)COCCOCCNC(=O)CC[C@H](NC(=O)CCCCCCCCCCCCCCCCCCC(=O)O)C(=O)O)NC(=O)[C@H](CCCCN)NC(=O)[C@H](CC(=O)O)NC(=O)[C@H](CC(C)C)NC(=O)[C@](C)(Cc1ccccc1)NC(=O)[C@H](CCCCN)NC(=O)[C@H](CO)NC(=O)[C@@H](NC(=O)[C@H](CC(=O)O)NC(=O)[C@H](CO)NC(=O)[C@@H](NC(=O)[C@H](Cc1ccccc1)NC(=O)[C@@H](NC(=O)CNC(=O)[C@H](CCC(N)=O)NC(=O)C(C)(C)NC(=O)[C@@H](N)Cc1c[nH]cn1)[C@@H](C)O)[C@@H](C)O)C(C)C)C(C)C)C(=O)N[C@@H](CCC(=O)O)C(=O)N[C@@H](C)C(=O)NC(C)(C)C(=O)NCC(N)=O
# B7: Peptide 455 (peptide)
# peptide: H[Aib]QGTFTSDVSK[αMeF]LDKK([AEEA-AEEA-γGlu-γGlu-C20 diacid])RAQDFVRWLL[Aib]E-NH2
# modifications: N-terminus assumed
# SMILES: CC(C)C[C@H](NC(=O)[C@H](Cc1c[nH]c2ccccc12)NC(=O)[C@H](CCCNC(=N)N)NC(=O)[C@@H](NC(=O)[C@H](Cc1ccccc1)NC(=O)[C@H](CC(=O)O)NC(=O)[C@H](CCC(N)=O)NC(=O)[C@H](C)NC(=O)[C@H](CCCNC(=N)N)NC(=O)[C@H](CCCCNC(=O)COCCOCCNC(=O)COCCOCCNC(=O)CC[C@H](NC(=O)CC[C@H](NC(=O)CCCCCCCCCCCCCCCCCCC(=O)O)C(=O)O)C(=O)O)NC(=O)[C@H](CCCCN)NC(=O)[C@H](CC(=O)O)NC(=O)[C@H](CC(C)C)NC(=O)[C@](C)(Cc1ccccc1)NC(=O)[C@H](CCCCN)NC(=O)[C@H](CO)NC(=O)[C@@H](NC(=O)[C@H](CC(=O)O)NC(=O)[C@H](CO)NC(=O)[C@@H](NC(=O)[C@H](Cc1ccccc1)NC(=O)[C@@H](NC(=O)CNC(=O)[C@H](CCC(N)=O)NC(=O)C(C)(C)NC(=O)[C@@H](N)Cc1c[nH]cn1)[C@@H](C)O)[C@@H](C)O)C(C)C)C(C)C)C(=O)N[C@@H](CC(C)C)C(=O)NC(C)(C)C(=O)N[C@@H](CCC(=O)O)C(N)=O
# Target: human GLP-1 receptor (hGLP-1R) (human, UniProt P43220 24-463)
# Assay: cell-based or functional assay
row,hGLP-1R EC50 (pM),Binder
1,39.5,B1
2,495,B2
3,133,B3
4,170,H[Aib]QGTFTSDVSK[αMeF]LDKK([AEEA-AEEA-γGlu-C20 diacid])RAQDFVRWLLE[Aib]G-NH2 [Peptide 453]
5,485,B4
6,895,B5
7,32.7,H[Aib]QGTFTSDVSK[αMeF]LDKK([AEEA-AEEA-γGlu-C18 diacid])RAQDFVRWLLA (not fully specified (C-terminus)) [Peptide 459]
8,117,H[Aib]QGTFTSDVSK[αMeF]LDKK([AEEA-AEEA-γGlu-C20 diacid])RAQDFVRWLLAE-NH2 [Peptide 460]
9,173,B6
10,127,B7

# Target: human glucagon receptor (hGCGR) (human, UniProt P47871 26-477)
# Sequence (P47871 26-477): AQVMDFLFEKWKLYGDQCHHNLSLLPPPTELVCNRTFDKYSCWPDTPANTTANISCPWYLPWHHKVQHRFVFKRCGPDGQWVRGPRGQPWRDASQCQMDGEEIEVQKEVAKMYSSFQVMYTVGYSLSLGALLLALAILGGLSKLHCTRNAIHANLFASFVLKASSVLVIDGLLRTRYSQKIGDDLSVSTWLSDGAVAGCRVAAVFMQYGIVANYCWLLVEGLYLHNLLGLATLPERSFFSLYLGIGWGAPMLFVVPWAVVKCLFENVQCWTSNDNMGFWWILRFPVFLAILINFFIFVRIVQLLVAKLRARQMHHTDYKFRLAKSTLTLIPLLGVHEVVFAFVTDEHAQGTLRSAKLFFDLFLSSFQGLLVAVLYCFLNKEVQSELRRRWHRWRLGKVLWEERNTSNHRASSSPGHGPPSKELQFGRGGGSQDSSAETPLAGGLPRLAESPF
# Assay: cell-based or functional assay
row,hGluc-R EC50 (pM),Binder
1,89.2,B1
2,151,B2
3,80.3,B3
4,162,H[Aib]QGTFTSDVSK[αMeF]LDKK([AEEA-AEEA-γGlu-C20 diacid])RAQDFVRWLLE[Aib]G-NH2 [Peptide 453]
5,436,B4
6,503,B5
7,36.9,H[Aib]QGTFTSDVSK[αMeF]LDKK([AEEA-AEEA-γGlu-C18 diacid])RAQDFVRWLLA (not fully specified (C-terminus)) [Peptide 459]
8,66.5,H[Aib]QGTFTSDVSK[αMeF]LDKK([AEEA-AEEA-γGlu-C20 diacid])RAQDFVRWLLAE-NH2 [Peptide 460]
9,274,B6
10,114,B7
